We go through three molecules from patent publication US20230242658A1 (published 2023).

The target in assay [1] is human 4-1BB on CHO-K1 cells (human, UniProt Q07011 24-255). Nature of the assay: FACS.
The target in assay [2] is human PD-L1 on CHO-K1 cells (human, UniProt Q9NZQ7 19-290). The assay is described as follows: FACS; MDA-MB-231 cells. On the technique in general: A flow cytometer gives signals particle by particle.

In general, EC50 refers to the concentration that produces a half-maximal response.

Sequence of human PD-L1 on CHO-K1 cells (Q9NZQ7 19-290): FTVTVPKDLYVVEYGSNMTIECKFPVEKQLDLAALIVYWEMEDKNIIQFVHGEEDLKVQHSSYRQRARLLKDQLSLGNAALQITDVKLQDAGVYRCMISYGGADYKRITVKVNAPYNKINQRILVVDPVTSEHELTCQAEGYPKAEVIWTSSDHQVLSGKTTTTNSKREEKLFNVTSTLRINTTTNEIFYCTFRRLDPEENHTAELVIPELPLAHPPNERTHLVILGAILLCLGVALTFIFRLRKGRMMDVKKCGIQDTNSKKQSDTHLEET
Sequence of human 4-1BB on CHO-K1 cells (Q07011 24-255): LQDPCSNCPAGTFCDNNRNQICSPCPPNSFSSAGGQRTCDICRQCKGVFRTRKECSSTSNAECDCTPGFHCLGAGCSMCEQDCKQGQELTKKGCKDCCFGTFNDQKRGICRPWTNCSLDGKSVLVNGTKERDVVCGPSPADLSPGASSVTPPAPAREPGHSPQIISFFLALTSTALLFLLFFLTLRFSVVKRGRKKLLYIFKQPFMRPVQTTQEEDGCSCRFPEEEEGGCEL

B1: PR007137 (bispecific antibody)
light: DIQMTQSPSTLSASVGDRVTVTCRASQSIYIWLAWYQQKPGKAPNLLIYKASSLETGVPSRFSGSGSGTEFTLTISSLQPDDFATYYCQQYYGSSRTFGQGTKVEIKRTVAAPSVFIFPPSDEQLKSGTASVVCLLNNFYPREAKVQWKVDNALQSGNSQESVTEQDSKDSTYSLSSTLTLSKADYEKHKVYACEVTHQGLSSPVTKSFNRGEC
heavy: EVQLVESGGGLVQPGGSLRLSCAASGFTFSSYWMSWVRQAPGKGLEWVANIKQEGSEKYYVDSVKGRFTISRDNAKNSLYLQMNSLRAEDTAVYYCARDRAVAGAFDIWGQGTMVTVSSASTKGPSVFPLAPSSKSTSGGTAALGCLVKDYFPEPVTVSWNSGALTSGVHTFPAVLQSSGLYSLSSVVTVPSSSLGTQTYICNVNHKPSNTKVDKKVEPKSCDKTHTCPPCPAPEAAGAPSVFLFPPKPKDTLMISRTPEVTCVVVDVSHEDPEVKFNWYVDGVEVHNAKTKPREEQYNSTYRVVSVLTVLHQDWLNGKEYKCKVSNKALPAPIEKTISKAKGQPREPQVYTLPPSREEMTKNQVSLTCLVKGFYPSDIAVEWESNGQPENNYKTTPPVLDSDGSFFLYSKLTVDKSRWQQGNVFSCSVMHEALHNHYTQKSLSLSPGGGSGGSEVQLVESGGGVVQPGRSLRLSCAASGFTFSDYYMSWFRQAPGKGLEWVSYISSSGTTIDYADSVKGRFTISRDNAKNSLYLQMNSLRAEDTAVYYCAREREEVAGTLDFDYWGQGTPVTVSS
On to B1, for which the EC50 in assay [1] is 4.65 nM; in assay [2] it was 0.203 nM.

B2: PR007132 (bispecific antibody)
light: DIQMTQSPSTLSASVGDRVTVTCRASQSIYIWLAWYQQKPGKAPNLLIYKASSLETGVPSRFSGSGSGTEFTLTISSLQPDDFATYYCQQYYGSSRTFGQGTKVEIKRTVAAPSVFIFPPSDEQLKSGTASVVCLLNNFYPREAKVQWKVDNALQSGNSQESVTEQDSKDSTYSLSSTLTLSKADYEKHKVYACEVTHQGLSSPVTKSFNRGEC
heavy: EVQLVESGGGLVQPGGSLRLSCAASGFTFSSYWMSWVRQAPGKGLEWVANIKQEGSEKYYVDSVKGRFTISRDNAKNSLYLQMNSLRAEDTAVYYCARDRAVAGAFDIWGQGTMVTVSSASTKGPSVFPLAPSSKSTSGGTAALGCLVKDYFPEPVTVSWNSGALTSGVHTFPAVLQSSGLYSLSSVVTVPSSSLGTQTYICNVNHKPSNTKVDKKVEPKSCDKTHTCPPCPAPEAAGAPSVFLFPPKPKDTLMISRTPEVTCVVVDVSHEDPEVKFNWYVDGVEVHNAKTKPREEQYNSTYRVVSVLTVLHQDWLNGKEYKCKVSNKALPAPIEKTISKAKGQPREPQVYTLPPSREEMTKNQVSLTCLVKGFYPSDIAVEWESNGQPENNYKTTPPVLDSDGSFFLYSKLTVDKSRWQQGNVFSCSVMHEALHNHYTQKSLSLSPGGGSGGSEVQLVESGGGLVKPGGSLRLSCAASGFTFSDYYMSWIRQAPGKGLEWVSYISSSGSTIYYADSVKGRFTISRDNAKNSLYLQMNSLRAEDTAVYYCARVKPVAGTWDWFDPWGQGTPVTVSS
For the molecule B2, the values for the EC50 in assay [1] and in assay [2] were 5.58 nM and 0.22 nM, respectively.

B3: PR007136 (bispecific antibody)
light: DIQMTQSPSTLSASVGDRVTVTCRASQSIYIWLAWYQQKPGKAPNLLIYKASSLETGVPSRFSGSGSGTEFTLTISSLQPDDFATYYCQQYYGSSRTFGQGTKVEIKRTVAAPSVFIFPPSDEQLKSGTASVVCLLNNFYPREAKVQWKVDNALQSGNSQESVTEQDSKDSTYSLSSTLTLSKADYEKHKVYACEVTHQGLSSPVTKSFNRGEC
heavy: EVQLVESGGGLVQPGGSLRLSCAASGFTFSSYWMSWVRQAPGKGLEWVANIKQEGSEKYYVDSVKGRFTISRDNAKNSLYLQMNSLRAEDTAVYYCARDRAVAGAFDIWGQGTMVTVSSASTKGPSVFPLAPSSKSTSGGTAALGCLVKDYFPEPVTVSWNSGALTSGVHTFPAVLQSSGLYSLSSVVTVPSSSLGTQTYICNVNHKPSNTKVDKKVEPKSCDKTHTCPPCPAPEAAGAPSVFLFPPKPKDTLMISRTPEVTCVVVDVSHEDPEVKFNWYVDGVEVHNAKTKPREEQYNSTYRVVSVLTVLHQDWLNGKEYKCKVSNKALPAPIEKTISKAKGQPREPQVYTLPPSREEMTKNQVSLTCLVKGFYPSDIAVEWESNGQPENNYKTTPPVLDSDGSFFLYSKLTVDKSRWQQGNVFSCSVMHEALHNHYTQKSLSLSPGGGSGGSEVQLVESGGGLVKPGGSLRLSCAASGFTFSDYYMSWFRQAPGKGLEWVSYISSSGSTQDYADSVKGRFTISRDNAKNSLYLQMNSLRAEDTAVYYCAREREPVAGTLDFDNWGQGTPVTVSS
As for B3, the EC50 was found to be 8.74 nM in assay [1] and 0.253 nM in assay [2].
